B1: ScpB (Bacillus subtilis), His-tagged, purified (natural protein, UniProt P35155 1-197, looked up)
chain: MGLDIVNWKAIVEALLYAAGDEGLTKKQLLTVLEIEEPELNTIMADVADEYRGDTRGIELIEYADTYMLSTKKDFAPYLKKLIEVPSKGLSQASLEVLAIVSYKQPITRAEIEEIRGVKSERILHSLVAKALLCEVGRADGPGRAILYGTTPTFLEQFGLKTLDELPPLPENAEEDVLQEEADLFFENFNQTFEDIK
notes: ScpB, Bacillus subtilis; elutes at 65 kDa in gel filtration (dimer)
B2: SMC protein (Bacillus subtilis), His-tagged, purified (natural protein, UniProt P51834 1-1186, looked up)
chain: MFLKRLDVIGFKSFAERISVDFVKGVTAVVGPNGSGKSNITDAIRWVLGEQSARSLRGGKMEDIIFAGSDSRKRLNLAEVTLTLDNDDHFLPIDFHEVSVTRRVYRSGESEFLINNQPCRLKDIIDLFMDSGLGKEAFSIISQGKVEEILSSKAEDRRSIFEEAAGVLKYKTRKKKAENKLFETQDNLNRVEDILHELEGQVEPLKIQASIAKDYLEKKKELEHVEIALTAYDIEELHGKWSTLKEKVQMAKEEELAESSAISAKEAKIEDTRDKIQALDESVDELQQVLLVTSEELEKLEGRKEVLKERKKNAVQNQEQLEEAIVQFQQKETVLKEELSKQEAVFETLQAEVKQLRAQVKEKQQALSLHNENVEEKIEQLKSDYFELLNSQASIRNELQLLDDQMSQSAVTLQRLADNNEKHLQERHDISARKAACETEFARIEQEIHSQVGAYRDMQTKYEQKKRQYEKNESALYQAYQYVQQARSKKDMLETMQGDFSGFYQGVKEVLKAKERLGGIRGAVLELISTEQKYETAIEIALGASAQHVVTDDEQSARKAIQYLKQNSFGRATFLPLSVIRDRQLQSRDAETAARHSSFLGVASELVTFDPAYRSVIQNLLGTVLITEDLKGANELAKLLGHRYRIVTLEGDVVNPGGSMTGGAVKKKNNSLLGRSRELEDVTKRLAEMEEKTALLEQEVKTLKHSIQDMEKKLADLRETGEGLRLKQQDVKGQLYELQVAEKNINTHLELYDQEKSALSESDEERKVRKRKLEEELSAVSEKMKQLEEDIDRLTKQKQTQSSTKESLSNELTELKIAAAKKEQACKGEEDNLARLKKELTETELALKEAKEDLSFLTSEMSSSTSGEEKLEEAAKHKLNDKTKTIELIALRRDQRIKLQHGLDTYERELKEMKRLYKQKTTLLKDEEVKLGRMEVELDNLLQYLREEYSLSFEGAKEKYQLETDPEEARKRVKLIKLAIEELGTVNLGSIDEFERVNERYKFLSEQKEDLTEAKNTLFQVIEEMDEEMTKRFNDTFVQIRSHFDQVFRSLFGGGRAELRLTDPNDLLHSGVEIIAQPPGKKLQNLNLLSGGERALTAIALLFSILKVRPVPFCVLDEVEAALDEANVFRFAQYLKKYSSDTQFIVITHRKGTMEEADVLYGVTMQESGVSKVISVKLEETKEFVQ
notes: SMC, Bacillus subtilis; monomeric size 135 kDa as printed; also called wild-type SMC; wild type SMC

Columns and labels:
[1] = target: the molecule itself; assay: SEC; analytical gel filtration, Superdex 200 10/300 GL; 50 mM HEPES, 300 mM NaCl, pH 8.0; proteins incubated 30 min; ScpA and ScpB alone or mixed (1:2.5, 1:0.83, 1:10), fractions on SDS-PAGE
[2] = target: the molecule itself; assay: SEC + other: sucrose gradient centrifugation; native weight of purified SMC from sedimentation coefficient 6.6 and Stokes radius 8.5; monomers to dimer

Row | Protein | stoichiometry N [1] | stoichiometry N [2]
1 | B1 | 2 | –
2 | B2 | – | 2
